Results as given in US20170082609A1.

Legend:
[1] = molecular target: CDHR3 Cys529→Tyr variant with Asn186→Ala (human) (UniProt Q6ZTQ4); assay: virus bound to transfected HeLa cells 2 h p.i., viral RNA by qRT-PCR, against CDHR3 Cys529→Tyr without the mutation
[2] = molecular target: CDHR3 Cys529→Tyr variant (human) (UniProt Q6ZTQ4); assay: virus bound to transfected HeLa cells 2 h p.i., viral RNA by qRT-PCR
[3] = molecular target: CDHR3 Cys529→Tyr variant (human) (UniProt Q6ZTQ4); assay: cell-based or functional assay
[4] = molecular target: human cadherin-related family member 3 (CDHR3), wild-type (human) (UniProt Q6ZTQ4); assay: cell-based or functional assay
[5] = molecular target: CDHR3 Cys529→Tyr variant with Asn186→Ala (human) (UniProt Q6ZTQ4); assay: cell-based or functional assay

“rhinovirus C15 (RV-C15), recombinant virus from the clinical isolate's infectious clone” gave a percent impairment of virus binding [1] of over 70%, a fold binding relative to the wild-type CDHR3 [2] of 10 fold and a progeny yield relative to the wild-type CDHR3 [3] of 10 fold. For the same substance, the replication in HeLa-E8 cells (viral RNA from 2 h to 24 h post infection) [3] was over 2 log, the replication (RV-C RNA compared to input) [4] was 2 log and the replication [5] was 70%.
